Test results published in paper doi:10.1101/2024.06.19.598823 (bioRxiv, 2024).

Biological target: RBD protein of SARS-like CoV WIV16 (Bat SARS-like coronavirus WIV16)
Test: ELISA

B1: nanobody 7F (VHH)
VHH: EVQLVESGGGLVEAGGSLRLSCVASGLTFSDYTMAWFRQVPGQEREFVSHIGWGGSETYYADSVKGRFTISRDNAKNAMYLQMNELKPDDTAVYYCAADRGSSFYYVRESEYTFWGQGTQVTVSS
B1: binds.
